{"source": "patent US20230242623A1", "about": "(GEORGIA TECH RESEARCH, published 2023)", "molecular_target": "T1, SARS-CoV-2 RBD (RBD-luciferase antigen of the split-luciferase reporter) (SARS-CoV-2, UniProt P0DTC2 319-541)", "T1 construct": "domain: RBD", "experiment": "split-luciferase reporter of RBD-hACE2 interaction; antibody against hACE2", "data": [{"binder": "3A2 (antibody, V domains shown, also called 3A2 clone) VH: QVTLKESGPGILQPSQTLSLTCSFSGFSLSTSGMGVSWIRQPSGKGLEWLAHIYWDDDKRYNPSLKSRLTISKDTSSSQVFLKITSVDTVDTATYYCARRGPLITTDGTFDVWGAGTTVTVSS VL: DIVMTQSRKFMSTSVGDRVSITCKASQDVGTSVAWYQQKPGQSPKLLIYWASTRHTGVPDRFTGSGSGTDFTLTINSVQSEDLADYFCQQYSSYPYTFGGGTKLEMK", "values": [{"measurement": "% inhibition of RBD-hACE2 binding", "value": "> 80", "unit": "%"}]}, {"binder": "3F5 (antibody, V domains shown, also called 1-3F5) VH: QVTLKESGPGILQPSQTLSLTCSFSGFSLSTSGMGVSWIRQPSGKGLEWLAHIYWDDDKRYNPSLKSRLTISKDTSSSQVFLKITSVDTVDTATYYCARRGPLITTDGTFDVWGAGTTVTVSS VL: DIVMTQSRKFMSTSVGDRVSITCKASQDVGTSVAWYQQKPGQSPKLLIYWASTRHTGVPDRFTGSGSGTDFTLTINSVQSEDLADYFCQQYSSYPYTFGGGTKLEMK", "values": [{"measurement": "% inhibition of RBD-hACE2 binding", "value": "> 80", "unit": "%"}]}, {"binder": "3A7 (antibody, V domains shown, also called 3A7 clone) VH: QVTLKESGPGILQPSQTLSLTCSFSGFSLSTSGMGVSWIRQPSGKGLEWLAHIYWDDDKRYNPSLKSRLTISKDTSSSQVFLKITSVDTVDTATYYCARRGPLITTDGTFDVWGAGTTVTVSS VL: DIVMTQSRKFMSTSVGDRVSITCKASQDVGTSVAWYQQKPGQSPKLLIYWASTRHTGVPDRFTGSGSGTDFTLTINSVQSEDLADYFCQQYSSYPYTFGGGTKLEMK", "values": [{"measurement": "% inhibition of RBD-hACE2 binding", "value": "> 80", "unit": "%"}]}, {"binder": "3B3 (antibody, V domains shown, also called 3B3 clone; 1-3B3) VH: DVQLQESGPGLVKPSQSLSLTCTVTGYSITSDYAWIWIRQFPGNKLEWMAYISYSGTTSYNPSLKSRISITRDTSKNQFFLQLNSVTTEDTATYYCAGRRGAYYGNYEEDYWGRGTSVTVSS VL: QIVLTQSPAIMSASPGEKVTMTCSSSSIVNYMYWYQQKPGSSPRLLIYDTSTLASGVPVRFSGSGSGTSYSLTISRMEAEDAATYYCQQWSSYPYTFGGGTKLEIK", "values": [{"measurement": "% inhibition of RBD-hACE2 binding", "value": "> 80", "unit": "%"}]}, {"binder": "3H2 (antibody, V domains shown, also called 1-3H2) VH: QVQLQQSGAELMKPGASVKISCKATGNTFSNYWIEWVKQRPGHGLEWIGEILPGSDSTNYNEKFKGKATFTADTSSKTAYMQLSSLTSEDSAVYYCARNRFYWYFDVWGAGTTVTVSS VL: DVVMTQTPLSLPVSLGDQASISCRSSQSLVHSNGNTYLHWYLQKPGQSPKLLIYKVSNRFSGVPDRFSGSGSGTDFTLKISRVEAEDLGIYFCSQSTHVPWTFGGGTKLEIK", "values": [{"measurement": "% inhibition of RBD-hACE2 binding", "value": "> 80", "unit": "%"}]}, {"binder": "3F2 (antibody, V domains shown, also called 1-3F2) VH: QVQLQQPGAELVKPGASVKMSCKASGYTFTSYSLHWVKQTPGQGLEWIGAVYPGNDDTSYNQNFKGKATLTADKSSNTAYMQLSSLTSEDSAVYYCARDGYFAMDYWGQGTSVTVSS VL: DIVMSQSPSSLAVSVGEKVTMSCKSSQSLLYSTNQKNYLAWYQQKPGQSPKLLIYWASTRESGVPDRFTGSGSGTDFTLTISSVKAEDLAVYYCHQYYSYPWTFGGGTKLEIK", "values": [{"measurement": "% inhibition of RBD-hACE2 binding", "value": "> 80", "unit": "%"}]}]}
